B1: CCL13/MCP-4 (ligand)
chain: not shown
B2: XCL1/lymphotactin (ligand)
chain: VGSEVSDKRTCVSLTTQRLPVSRIKTYTITEGSLRAVIFITKRGLKVCADPQATWVRDVVRSMDRKSNTRNNMIQTKPTGTQQSTNTAVTLTG

Target: recombinant Δ6 evasin-4 (truncated, N-terminally 6His tagged evasin-4, amino acids 24-127), purified (Rhipicephalus sanguineus)
Experiment: SPR (Biacore 3000), Δ6 evasin-4 immobilized on CM4 chip, chemokine injected

Binder | binding result
B1 | no binding (tested: 0.1 µg/ml)
B2 | no binding (tested: 0.1 µg/ml)

Source: patent publication US20080287363A1 (LABORATOIRES SERONO, published 2008)
